Paper PMC9047656 (ACS Nano, 2022)

Target: the molecule itself
Test: SEC-MALS

B1: canavalin (natural protein, Canavalia ensiformis (jack bean), UniProt P50477 27-445, looked up)
chain: HSGHSGGEAEDESEESRAQNNPYLFRSNKFLTLFKNQHGSLRLLQRFNEDTEKLENLRDYRVLEYCSKPNTLLLPHHSDSDLLVLVLEGQAILVLVNPDGRDTYKLDQGDAIKIQAGTPFYLINPDNNQNLRILKFAITFRRPGTVEDFFLSSTKRLPSYLSAFSKNFLEASYDSPYDEIEQTLLQEEQEGVIVKMPKDQIQEISKHAQSSSRKTLSSQDKPFNLRSRDPIYSNNYGKLYEITPEKNSQLRDLDILLNCLQMNEGALFVPHYNSRATVILVANEGRAEVELVGLEQQQQQGLESMQLRRYAATLSEGDIIVIPSSFPVALKAASDLNMVGIGVNAENNERNFLAGHKENVIRQIPRQVSDLTFPGSGEEVEELLENQKESYFVDGQPRHIDAGGKARRAHLPNLFRTFY
  stoichiometry N: 3
